Source: PMC11833123, “A bipartite bacterial virulence factor targets the complement system and neutrophil activation” (The EMBO Journal, 2025)

T1: GST-CXCR1 (recombinant, from E. coli) (UniProt P25024 1-350)
T1 construct: CXCR1 (Uniport entry P25024), full length, gene codon optimized and synthesized, cloned into pGEX-6P-1; also called CXCR1 from E.coli; recombinant GST-CXCR1; source: E. coli BL21, purified (Glutathione Agarose with 5% sarkosyl in the lysis buffer, SEC); not shown: GST, N-terminal, kept
T1 sequence: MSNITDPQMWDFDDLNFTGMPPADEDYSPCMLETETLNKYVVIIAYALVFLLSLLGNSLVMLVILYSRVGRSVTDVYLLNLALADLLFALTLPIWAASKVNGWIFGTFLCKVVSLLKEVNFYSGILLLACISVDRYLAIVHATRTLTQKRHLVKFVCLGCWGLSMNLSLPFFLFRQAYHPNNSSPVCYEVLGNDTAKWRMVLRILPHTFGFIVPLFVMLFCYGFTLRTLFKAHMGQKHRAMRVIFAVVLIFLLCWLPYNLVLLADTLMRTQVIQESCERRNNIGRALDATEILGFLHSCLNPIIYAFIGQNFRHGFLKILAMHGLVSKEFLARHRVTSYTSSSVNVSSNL


Key:
[1] = biological target: C0362, C-terminal part of TDE0362 with the Mac-like domain (205–647 aa) (Treponema denticola ATCC 35405) (UniProt Q73QT1); test: SEC; dimer fraction noted during SEC of purified C0362; column and buffer are not tied to this remark
[2] = biological target: T1, GST-CXCR1 (recombinant, from E. coli); test: SPR; GST-CXCR1 coupled (EDC/NHS) to CM5 sensor chips, N0362 flowed over (0.05 or 0.1 µM to 3 µM), 25 °C, dPBS with 0.01% Tween 20, Reichert SR7500DC; kinetics globally fit to a one to two binding model, affinity model for saturation; details: both partners purified

| Molecule | fraction of the total material that was dimer [1] | Kd [2] | koff [2] | kon [2] |
| --- | --- | --- | --- | --- |
| C0362, C-terminal part of TDE0362 with the Mac-like domain (205–647 aa) (from UniProt Q73QT1 205-647) (enzyme) | 10% |  |  |  |
| N0362, the N-terminus of TDE0362 (23–204 aa) (domain or fragment, Alexa Fluor 488 label (only in the immunofluorescence on cells), TDE0362 of Treponema denticola ATCC 35405 (647 aa pre-protein), residues 23-204 with both bacterial Ig-like domains Big_1 and Big_2; Cloned in pET100/D-TOPO, which encodes the N-terminal 6xHis-tag; The same construct was used unlabelled (pull-down, ELISA, SPR) and labelled with Alexa Fluor 488 (cells); also called recombinant N0362; His-tagged N0362; source: E. coli BL21-CodonPlus (DE3)-RIL, …) KNNLLTKTEKEKSGEIPVKNIILSPNKSEFSLEKNTAQTITVKIIPEKATNKALIYSSKHGDIASIDNTGLITAKKEGRTIITIEASNGVKKTIDVIVTPEPIPVTNIEFEEEPPAFLFIGDVYIFKAKAKPDEATNRKLEYTTMTSDVISVTNTELGTMKATKEGNAAITIRSASTPSVAK |  | 264 ± 2.3 nM | 0.000857 s⁻¹ | 4950 M⁻¹ s⁻¹ |
